US20210060169A1

Target: human IL-2Rαβγ (human) (UniProt P01589)
Assay: cell-based or functional assay

Chain of human IL-2Rαβγ (human) (P01589 22-272, chain 1 of 3): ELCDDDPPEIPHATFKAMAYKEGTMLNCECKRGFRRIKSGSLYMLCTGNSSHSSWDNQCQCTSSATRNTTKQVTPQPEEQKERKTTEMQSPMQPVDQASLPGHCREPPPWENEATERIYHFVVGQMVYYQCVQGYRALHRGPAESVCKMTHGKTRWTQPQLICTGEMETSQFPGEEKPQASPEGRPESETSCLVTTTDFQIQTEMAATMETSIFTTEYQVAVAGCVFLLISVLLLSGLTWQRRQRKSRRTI
Chain of human IL-2Rαβγ (human) (P14784 27-551, chain 2 of 3, further chain): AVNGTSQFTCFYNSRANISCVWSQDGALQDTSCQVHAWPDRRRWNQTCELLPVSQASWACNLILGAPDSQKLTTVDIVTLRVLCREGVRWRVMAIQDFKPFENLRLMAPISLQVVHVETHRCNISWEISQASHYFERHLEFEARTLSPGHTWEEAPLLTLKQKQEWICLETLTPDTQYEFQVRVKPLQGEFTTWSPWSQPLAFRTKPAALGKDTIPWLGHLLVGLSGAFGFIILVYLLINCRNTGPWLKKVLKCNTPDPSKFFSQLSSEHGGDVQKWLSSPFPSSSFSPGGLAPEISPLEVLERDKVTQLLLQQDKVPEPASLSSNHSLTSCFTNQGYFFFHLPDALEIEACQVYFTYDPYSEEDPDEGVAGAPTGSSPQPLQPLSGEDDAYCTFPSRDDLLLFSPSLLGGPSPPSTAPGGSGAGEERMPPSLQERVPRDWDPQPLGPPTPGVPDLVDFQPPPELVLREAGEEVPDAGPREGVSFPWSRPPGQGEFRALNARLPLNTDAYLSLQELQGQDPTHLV
Chain of human IL-2Rαβγ (human) (P31785 23-369, chain 3 of 3, further chain): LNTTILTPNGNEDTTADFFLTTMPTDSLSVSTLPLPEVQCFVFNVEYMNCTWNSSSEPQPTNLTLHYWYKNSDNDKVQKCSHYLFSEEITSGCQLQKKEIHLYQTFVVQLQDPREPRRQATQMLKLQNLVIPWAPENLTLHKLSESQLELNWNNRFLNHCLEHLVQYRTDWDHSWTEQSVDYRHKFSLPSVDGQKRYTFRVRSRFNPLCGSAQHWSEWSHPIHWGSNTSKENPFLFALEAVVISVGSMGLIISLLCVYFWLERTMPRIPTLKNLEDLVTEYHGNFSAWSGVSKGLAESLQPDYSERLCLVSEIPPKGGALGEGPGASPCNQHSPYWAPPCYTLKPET
Chain of 8His-S4(oAzZK) (P60568 other isoform, or with tags, fused parts or gaps): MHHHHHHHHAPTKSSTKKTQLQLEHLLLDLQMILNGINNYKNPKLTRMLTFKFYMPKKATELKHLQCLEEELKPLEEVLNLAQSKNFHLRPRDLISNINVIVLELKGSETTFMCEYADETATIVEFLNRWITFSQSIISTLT

Standardized EC50 ratio value: < 5
Substance: 8His-S4(oAzZK) (from UniProt P60568 25-153) (ligand)
